Molecular target: T1, Mms4 (S. cerevisiae, UniProt P38257 1-691)
T1 sequence (looked up): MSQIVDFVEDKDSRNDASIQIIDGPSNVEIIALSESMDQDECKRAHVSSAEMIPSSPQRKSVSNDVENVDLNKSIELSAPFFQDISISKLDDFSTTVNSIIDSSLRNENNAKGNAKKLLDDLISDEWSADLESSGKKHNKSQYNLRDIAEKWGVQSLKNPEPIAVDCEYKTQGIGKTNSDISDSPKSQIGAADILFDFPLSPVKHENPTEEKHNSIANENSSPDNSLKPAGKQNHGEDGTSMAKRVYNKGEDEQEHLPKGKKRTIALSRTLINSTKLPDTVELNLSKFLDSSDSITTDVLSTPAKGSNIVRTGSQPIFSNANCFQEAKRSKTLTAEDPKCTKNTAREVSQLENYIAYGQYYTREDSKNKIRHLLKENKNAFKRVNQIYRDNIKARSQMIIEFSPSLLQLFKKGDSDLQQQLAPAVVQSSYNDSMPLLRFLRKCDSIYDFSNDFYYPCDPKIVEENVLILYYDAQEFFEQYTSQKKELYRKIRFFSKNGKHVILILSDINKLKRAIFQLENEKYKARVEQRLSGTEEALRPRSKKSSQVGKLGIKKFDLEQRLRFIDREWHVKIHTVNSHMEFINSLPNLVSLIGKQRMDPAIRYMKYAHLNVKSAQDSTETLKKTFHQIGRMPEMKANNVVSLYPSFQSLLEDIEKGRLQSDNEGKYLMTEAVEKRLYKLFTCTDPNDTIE
Experiment: cross-linking

binding result: binds
B1: Mus81 (enzyme, S. cerevisiae, UniProt Q04149 1-632, looked up)
chain: MELSSNLKDLYIEWLQELVDGLTPKQEQLKIAYEKAKRNLQNAEGSFYYPTDLKKVKGIGNTIIKRLDTKLRNYCKIHHISPVEAPSLTQTSSTRPPKRTTTALRSIVNSCENDKNEAPEEKGTKKRKTRKYIPKKRSGGYAILLSLLELNAIPRGVSKEQIIEVAGKYSDHCMTPNFSTKEFYGAWSSIAALKKHSLVLEEGRPKRYSLTEEGVELTKSLKTADGISFPKENEEPNEYSVTRNESSEFTANLTDLRGEYGKEEEPCDINNTSFMLDITFQDLSTPQRLQNNVFKNDRLNSQTNISSHKLEEVSDDQTVPDSALKAKSTIKRRRYNGVSYELWCSGDFEVFPIIDHREIKSQSDREFFSRAFERKGMKSEIRQLALGDIIWVAKNKNTGLQCVLNTIVERKRLDDLALSIRDNRFMEQKNRLEKSGCEHKYYLIEETMSGNIGNMNEALKTALWVILVYYKFSMIRTCNSDETVEKIHALHTVISHHYSQKDLIVIFPSDLKSKDDYKKVLLQFRREFERKGGIECCHNLECFQELMGKGDLKTVGELTIHVLMLVKGISLEKAVAIQEIFPTLNKILMAYKTCSSEEEAKLLMFNVLGDAPGAKKITKSLSEKIYDAFGKL

Reference: publication PMC4041439 (Nucleic Acids Research, 2014)
